These results are taken from patent US7488573B2, “In vivo angiogenesis assay” (Children's Hospital Medical Center, priority 2002, dated 2009).

The subject of the experiment is PM vascular system. The experiment is described as follows: In vivo pupillary membrane (PM) angiogenesis assay in rat pups, transcorneal injection. Also on record: species or system Sprague-Dawley rat. To be noted: after 24 hours. On the procedure: A Sprague-Dawley rat pup, available from Taconic Farms (German Town, N.Y.), aged postconception (p.c.) day 30.5 to p.c. 34.5, was subdued with metaphane and subsequently anaesthetized with an intramuscular injection of ketamine and xylazine at 1.6 mg/g and […] respectively. The depth of anesthesia was monitored by paw pinch response and where necessary, the subject pup was maintained under anesthesia with additional doses of ketamine and xylazine intraperitoneally. The right eyelid of the rat pup was parted at the suture using a microdissecting vanna (Storz, St Louis), the eyeball gently raised, and the eyelids folded underneath to permit illumination of the eye with optic fibre light guides. The local anesthetic tetracaine hydrochloride (0.5%) was applied to the eyeball prior to parting of the eyelids. The rat pup was then placed in a silastic body mold designed to reduce movement, and kept warm with an overlaid heating element from a battery powered boot warmer (L. L. Bean, Maine). The liquid phase for the water immersion microscope objective was provided by addition of a bead of phosphate-buffered saline between the eyeball and the objective. Capillaries of the pupillary membrane were readily detected by searching through the focal axis. An eye holder as shown in FIG. 1 held the eyeball to limit movement, and to illuminate the interior of the eye.
A 5× air objective of a Zeiss Axiophot microscope (Zeiss, Thornwood, N.Y.) was positioned above the cornea of an anaesthetized rat. A beveled glass needle mounted on a micromanipulator was axially apposed to the eye holder and in this position could penetrate the cornea for delivery of the test substance directly onto the pupillary membrane.
A defined volume of a test substance was delivered to the anterior chamber using a Nanoject Variable injector (Drummond, Pa.).
After the predetermined period of angiogenic progress, the rat pup was humanely sacrificed. The treated PM was prepared as a whole mount specimen by dissecting the retina, sclera, choroid and cornea away from the lens, iris diaphragm, hyaloid vessels and pupillary membrane. The latter tissue group was then fixed overnight in 2% glutaraldehyde in 0.1 M cacodylate pH 7.4, 0.1 M sucrose. After fixation, the tissue was washed in buffer alone and dehydrated in an ethanol series (50%, 70%, 80%, 90%, 95% and 100%). The specimens where then treated for 1 hour in hexamethyldisilazane (Polysciences Inc. Pennsylvania) and then air dried overnight. After drying, they were mounted and sputter coated with approximately 100 angstroms of gold-palladium. Specimens were visualized using a JOEL SEM 840 scanning electron microscope.
The angiogenic effect on the cellular/vascular PM system was observed and recorded with imaging and recording means. […]

B1: Ang2: biotinylated recombinant human Ang2, available from Calbiochem (protein, UniProt O15123 19-496, looked up)
Angiopoietin-2: YNNFRKSMDSIGKKQYQVQHGSCSYTFLLPEMDNCRSSSSPYVSNAVQRDAPLEYDDSVQRLQVLENIMENNTQWLMKLENYIQDNMKKEMVEIQQNAVQNQTAVMIEIGTNLLNQTAEQTRKLTDVEAQVLNQTTRLELQLLEHSLSTNKLEKQILDQTSEINKLQDKNSFLEKKVLAMEDKHIIQLQSIKEEKDQLQVLVSKQNSIIEELEKKIVTATVNNSVLQKQQHDLMETVNNLLTMMSTSNSAKDPTVAKEEQISFRDCAEVFKSGHTTNGIYTLTFPNSTEEIKAYCDMEAGGGGWTIIQRREDGSVDFQRTWKEYKVGFGNPSGEYWLGNEFVSQLTNQQRYVLKIHLKDWEGNEAYSLYEHFYLSSEELNYRIHLKGLTGTAGKISSISQPGNDFSTKDGDNDKCICKCSQMLTGGWWFDACGPSNLNGMYYPQRQNTNKFNGIKWYYWKGSGYSLKATTMMIRPADF
modifications: biotin
notes: biotinylated recombinant human Ang2, available from Calbiochem
In the case of B1, the “increase in the width of flattened vessels present in the whole mount preparations” value (rat pups A5, Ang2 10 nanograms/ml anterior chamber, compared to the control) came out at 2.1 fold. Besides, for the setting “rat pups A5, Ang2 10 nanograms/ml anterior chamber, control showed no staining”, the “staining by HU177 antibody (collagen remodeling of the basal lamina of the PM)” value is given as “significant staining”. The “number of mitotic cells in the PM blood vessels” value (rat pups A5, injection into anterior chamber (VEGF 1 nanogram/ml; Ang2 10 nanograms/ml), compared to the control (un-injected eye)) is recorded as “significant increase”. In addition, the “diameter of capillary vessels” value (rat pups A5, injection into anterior chamber (VEGF 1 nanogram/ml; Ang2 10 nanograms/ml; anti-Tie2 50 nanograms/ml), compared to the control) was “dramatic increase”.
